# Measured values reported in patent publication US11793905B2, “Dressing” (University of Birmingham, priority 2015, dated 2023).
# B1: decorin (protein, UniProt P07585 31-359, looked up)
# Decorin: DEASGIGPEVPDDRDFEPSLGPVCPFRCQCHLRVVQCSDLGLDKVPKDLPPDTTLLDLQNNKITEIKDGDFKNLKNLHALILVNNKISKVSPGAFTPLVKLERLYLSKNQLKELPEKMPKTLQELRAHENEITKVRKVTFNGLNQMIVIELGTNPLKSSGIENGAFQGMKKLSYIRIADTNITSIPQGLPPSLTELHLDGNKISRVDAASLKGLNNLAKLGLSFNSISAVDNGSLANTPHLRELHLDNNKLTRVPGGLAEHKYIQVVYLHNNNISVVGSSDFCPPGHNTKKASYSGVSLFSNPVQYWEIQPSTFRCVYVRSAIQLGNYK
# notes: secreted 45 kDA proteoglycan with a core protein comprising primarily leucine-rich repeats; antifibrotic agent
# Tested on: MFs
# Test: Sirius red assay of collagen deposition from MFs under decorin-containing gellan membranes
# Type: cell-based
# Conditions: MFs with TGF-β1 added to produce excess collagen; 12 day period; Sirius red dye read at 550 nm; compared to non-treated samples
# Experimental: FIG. 4—MFs were cultured in 6-well plates and left to attach overnight. After overnight attachment TGF-β1 was added to the cells to produces excess collagen. Decorin containing membranes were placed on top of the cultures and collagen production was observed using the Sirius Red assay over time.
# FIG. 5: For quantifying the amount of Sirius red dye bound to collagen in the cultures the Sirius red was dissolved with 0.1N sodium hydroxide and left on a shaker for 30 min at room temperature. The dissolved dye was measured colourimetrically using a plate reader at 550 nm
molecule,measurement,value
B1,amount of collagen deposited,significantly reduces the amount of collagen deposited
